Data published in patent publication US20250346669A1 (DEUTSCHES KREBSFORSCHUNGSZENTRUM STIFTUNG DES FFENTLICHEN …, published 2025).

Key:
[1] = target: T1, human prostate specific membrane antigen (PSMA) (human, UniProt Q04609 1-750); assay: flow cytometry on PSMA-expressing 22RV1 cells
T1 construct: whole, on cells; also called PMSA; FOLH1
Experimental: To this end, the cells were incubated with the indicated antibodies in 96 well plates for 30-45 min at 4° C. Upon incubation cells were washed and incubated with a secondary PE-goat-anti-human FC-γ specific fragment (Jackson ImmunoResearch). Cells were analyzed on a FACSCalibur (BD Biosciences).

[2] = target: T1, human prostate specific membrane …; assay: in vivo biodistribution of radioisotope labeled CC-1 in mice with 22Rv1 (PSMA positive) or DU145 (PSMA negative) tumors
[3] = target: T1, human prostate specific membrane …; assay: flow cytometry on PSMA-transfected Sp2/0 cells

B1: PSMA (humanized h10B3) x CD3 (murine OKT3) bispecific Fabsc format antibody molecule (bispecific antibody, IgG1)
heavy: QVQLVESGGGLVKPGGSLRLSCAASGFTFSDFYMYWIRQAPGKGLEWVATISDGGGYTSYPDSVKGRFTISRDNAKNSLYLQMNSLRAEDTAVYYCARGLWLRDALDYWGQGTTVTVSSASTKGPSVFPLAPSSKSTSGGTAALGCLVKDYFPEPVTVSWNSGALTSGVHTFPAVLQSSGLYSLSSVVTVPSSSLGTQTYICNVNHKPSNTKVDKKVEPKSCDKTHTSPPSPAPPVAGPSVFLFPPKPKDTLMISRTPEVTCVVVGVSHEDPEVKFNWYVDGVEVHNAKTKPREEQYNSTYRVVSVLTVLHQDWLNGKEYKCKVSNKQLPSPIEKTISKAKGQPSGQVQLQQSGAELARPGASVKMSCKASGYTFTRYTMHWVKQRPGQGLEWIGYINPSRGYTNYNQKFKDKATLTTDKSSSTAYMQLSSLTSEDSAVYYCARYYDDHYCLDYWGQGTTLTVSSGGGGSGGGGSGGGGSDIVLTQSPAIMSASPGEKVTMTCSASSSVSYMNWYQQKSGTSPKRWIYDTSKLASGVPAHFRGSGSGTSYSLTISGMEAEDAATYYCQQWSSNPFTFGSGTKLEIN
light: EIVLTQSPATLSLSPGERATLSCSASSSISSNYLHWYQQKPGQAPRLLIYRTSNLASGIPARFSGSGSGTDYTLTISRLEPEDFAVYYCQQGSYIPFTFGQGTKLEIKRTVAAPSVFIFPPSDEQLKSGTASVVCLLNNFYPREAKVQWKVDNALQSGNSQESVTEQDSKDSTYSLSSTLTLSKADYEKHKVYACEVTHQGLSSPVTKSFNRGEC
notes: Heavy chain: h10B3 VH, IgG1 CH1, hinge, modified CH2, beginning of CH3, murine OKT3 scFv; also called h10B3xOKT3 Fabsc
Question: Does B1 bind [1]?
Answer: binds

B2: PSMA (humanized h10B3) x CD3 (humanized hUCHT1) bispecific IgGsc format antibody molecule (bispecific antibody)
heavy: QVQLVESGGGLVKPGGSLRLSCAASGFTFSDFYMYWIRQAPGKGLEWVATISDGGGYTSYPDSVKGRFTISRDNAKNSLYLQMNSLRAEDTAVYYCARGLWLRDALDYWGQGTTVTVSSASTKGPSVFPLAPSSKSTSGGTAALGCLVKDYFPEPVTVSWNSGALTSGVHTFPAVLQSSGLYSLSSVVTVPSSSLGTQTYICNVNHKPSNTKVDKKVEPKSCDKTHTCPPCPAPPVAGPSVFLFPPKPKDTLMISRTPEVTCVVVGVSHEDPEVKFNWYVDGVEVHNAKTKPREEQYNSTYRVVSVLTVLHQDWLNGKEYKCKVSNKQLPSPIEKTISKAKGQPREPQVYTLPPSRDELTKNQVSLTCLVKGFYPSDIAVEWESNGQPENNYKTTPPVLDSDGSFFLYSKLTVDKSRWQQGNVFSCSVMHEALHNHYTQKSLSLSPGKSGDIQMTQSPSSLSASVGDRVTITCRASQDIRNYLNWYQQKPGKAPKLLIYYTSRLESGVPSRFSGSGSGTDYTLTISSLQPEDFATYYCQQGNTLPWTFGQGTKVEIKGGGGSGGGGSGGGGSEVQLVESGGGLVQPGGSLRLSCAASGYSFTGYTMNWVRQAPGKGLEWVALINPYKGVSTYNQKFKDRFTISVDKSKNTAYLQMNSLRAEDTAVYYCARSGYYGDSDWYFDVWGQGTLVTVSS
light: EIVLTQSPATLSLSPGERATLSCSASSSISSNYLHWYQQKPGQAPRLLIYRTSNLASGIPARFSGSGSGTDYTLTISRLEPEDFAVYYCQQGSYIPFTFGQGTKLEIKRTVAAPSVFIFPPSDEQLKSGTASVVCLLNNFYPREAKVQWKVDNALQSGNSQESVTEQDSKDSTYSLSSTLTLSKADYEKHKVYACEVTHQGLSSPVTKSFNRGEC
notes: also called CC-1; PSMAxCD3 (h10B3xUCHT1)-IgGsc
Question: Does B2 bind [2]?
Answer: binds

B3: murine antibody 10B3 (antibody, IgG2b, V domains shown)
VH: QVQLQESGGGLVKPGGSLKLSCAASGFTFSDFYMYWVRQTPEKRLEWVATISDGGGYTSYPDSVKGRFTISRDIAKNNLYLQMNSLKSEDTAKYYCARGLWLRDALDYWGQGTSVTVSS
VL: EIVLTQSPITMAAFLGERITITCSASSSISSNYLHWYQQKPGFSPKLLIYRTSNLASGVPIRFSGSGSGTSYSLTIGTMEAEDVATYYCQQGSYIPFTFGSGTKLEIKR
notes: Mouse hybridoma antibody, isotype IgG2b/kappa; also called mu 10B3; m10B3
Question: Does B3 bind [3]?
Answer: binds
